In publication PMC8920257:

Legend:
Test in all cases: SPR
[1] = target: ACE2 p.Asp355Asn (human) (UniProt Q9BYF1)
[2] = target: ACE2 p.Glu329Gly (human) (UniProt Q9BYF1)
[3] = target: ACE2 p.Glu35Lys (human) (UniProt Q9BYF1)
[4] = target: ACE2 p.Glu37Lys (human) (UniProt Q9BYF1)
[5] = target: ACE2 p.Gly326Glu (human) (UniProt Q9BYF1)
[6] = target: ACE2 p.Lys26Arg (human) (UniProt Q9BYF1)
[7] = target: ACE2 p.Phe40Leu (human) (UniProt Q9BYF1)
[8] = target: ACE2 p.Pro389His (human) (UniProt Q9BYF1)
[9] = target: ACE2 p.Ser19Pro (human) (UniProt Q9BYF1)
[10] = target: ACE2 p.Thr27Arg (human) (UniProt Q9BYF1)

**Q.** Which SPR ΔΔG against ACE2 WT [1] does the source give for “SARS-CoV-2 Spike receptor binding domain (from UniProt P0DTC2) (domain or fragment)” here?
**A.** The SPR ΔΔG against ACE2 WT was under -3.16 kcal/mol.

**Q.** What about the SPR ΔΔG against ACE2 WT [2] of the same substance?
**A.** Its SPR ΔΔG against ACE2 WT is -0.09 kcal/mol.

**Q.** What about the ΔΔG against ACE2 WT [2] of the same substance?
**A.** The ΔΔG against ACE2 WT was -0.06 kcal/mol.

**Q.** What about the SPR ΔΔG against ACE2 WT [3] of the same substance?
**A.** Its SPR ΔΔG against ACE2 WT is -0.36 kcal/mol.

**Q.** What about the ΔΔG against ACE2 WT [3] of the same substance?
**A.** The ΔΔG against ACE2 WT was -0.29 kcal/mol.

**Q.** What about the SPR ΔΔG against ACE2 WT [4] of the same substance?
**A.** Its SPR ΔΔG against ACE2 WT is -1.33 kcal/mol.

**Q.** And the ΔΔG against ACE2 WT [4]?
**A.** Its ΔΔG against ACE2 WT is -1.25 kcal/mol.

**Q.** What about the SPR ΔΔG against ACE2 WT [5] of the same substance?
**A.** Its SPR ΔΔG against ACE2 WT is -0.65 kcal/mol.

**Q.** And the ΔΔG against ACE2 WT [5]?
**A.** The ΔΔG against ACE2 WT was -0.67 kcal/mol.

**Q.** What about the SPR ΔΔG against ACE2 WT [6] of the same substance?
**A.** The SPR ΔΔG against ACE2 WT was 0.26 kcal/mol.

**Q.** And the ΔΔG against ACE2 WT [6]?
**A.** The ΔΔG against ACE2 WT was 0.31 kcal/mol.

**Q.** What about the SPR ΔΔG against ACE2 WT [7] of the same substance?
**A.** Its SPR ΔΔG against ACE2 WT is 0.11 kcal/mol.

**Q.** What about the ΔΔG against ACE2 WT [7] of the same substance?
**A.** The ΔΔG against ACE2 WT was 0.14 kcal/mol.

**Q.** What about the SPR ΔΔG against ACE2 WT [8] of the same substance?
**A.** The SPR ΔΔG against ACE2 WT was 0.27 kcal/mol.

**Q.** And the ΔΔG against ACE2 WT [8]?
**A.** The ΔΔG against ACE2 WT was 0.12 kcal/mol.

**Q.** And the SPR ΔΔG against ACE2 WT [9]?
**A.** Its SPR ΔΔG against ACE2 WT is 0.59 kcal/mol.

**Q.** And the SPR ΔΔG against ACE2 WT [10]?
**A.** Its SPR ΔΔG against ACE2 WT is -0.11 kcal/mol.
